From publication PMC3519889

Experiments:
[1] = system: NarP (SO3982), phosphorylated (Shewanella oneidensis); assay: EMSA; conditions: 100 mM Tris/HCl pH 7.4, 20 mM KCl, 10 mM MgCl2, 2 mM DTT, 10% glycerol, 15 C, 60 min, ~2 nM probe, 2 ug poly(dI·dC); 4.8% native PAGE
[2] = system: NarP(D57N) (NarP#) (Shewanella oneidensis); assay: EMSA; conditions: no binding up to 2 uM, 100 mM Tris/HCl pH 7.4, 20 mM KCl, 10 mM MgCl2, 2 mM DTT, 10% glycerol, 15 C, 60 min, ~2 nM probe, 2 ug poly(dI·dC), 4.8% native PAGE

nrfA promoter fragment
binding [1]: < 0.25 µM | binding ([2]; not phosphorylation-treated): > 2 µM | binding ([2]; treated with NarQ51-585 and ATP): > 2 µM
